Measurements as given in PMC12952242.
pKd: −log10 of the molar value.

Key:
ZNF207 full-length K42E = assay: EMSA
ZNF207 full-length WT = assay: EMSA

Work on U1 snRNA yielded a pKd (ZNF207 full-length K42E) of 7.22 and a pKd (ZNF207 full-length WT) of 7.31.
